The test concerns the target wild-type human Pin1 PPIase domain (human, UniProt Q13526 1-163). The experiment in a line: ITC; 1.5 uL injections of 10 mM Cdc25C phosphor-peptide into 200 uL of 0.2 mM wild-type or S138A Pin1 PPIase domain in the cell; Microcal Auto iTC200; single-site fit with the stoichiometry fixed to n = 1; in triplicate; buffer and temperature not stated. The following applies: both partners purified. (ITC needs no label: the signal is the heat of the interaction.)

A word on the Kd: it is the constant that tells how readily two partners part at equilibrium. A lower Kd goes with tighter binding. A word on the stoichiometry N: it is the number of molecules, sites or subunits per partner or assembly.

Square brackets hold non-standard residues; d marks the D form. Ends that are not written are not given here. pT = C[C@@H](OP(=O)(O)O)[C@H](N)C(=O)O

wild-type human Pin1 PPIase domain, sequence (Q13526 whole entry, the tested form may be a part): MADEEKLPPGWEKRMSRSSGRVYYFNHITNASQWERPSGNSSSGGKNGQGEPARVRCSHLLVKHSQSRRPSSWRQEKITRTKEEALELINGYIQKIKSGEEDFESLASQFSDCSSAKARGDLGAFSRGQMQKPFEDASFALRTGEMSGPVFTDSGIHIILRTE

B1: phosphor-peptide Cdc25C (EQPLpTPVTDL) (peptide)
peptide: EQPL[pT]PVTDL
notes: Phosphopeptide named Cdc25C; also called phosphorylated peptide Cdc25C; Cdc25C phosphor-peptide; source: bought: Funakoshi (Tokyo, Japan), used without further purification
As to B1, the Kd was 1810 ± 290 µM and the “stoichiometry N” value came to 1 ± 0.001.

For the origin of these results see PMC6152768, “Dynamic Allostery Modulates Catalytic Activity by Modifying the Hydrogen Bonding Network in the Catalytic Site of Human Pin1” (Molecules : A Journal of Synthetic Chemistry and Natural …, 2017).
